Target: myc-tagged Trpc1 (transient receptor potential canonical subfamily member 1) (X. laevis)
Test: co-IP; mRNAs co-injected into 4-cell stage X. laevis embryos (200 pg/cell each); 12 animal caps (stage 8-9) lysed in SOFT buffer (50 mM Tris pH 7.4, 100 mM NaCl, 5 mM EDTA, 0.05% NP40, 1% Triton X100); 120 µg protein precipitated with anti-HA or anti-Myc antibodies and A/G protein beads; blots with anti-HA and anti-Myc; animal caps with or without 2 µg/mL noggin for 15 min before lysis

HA-tagged BMP receptor type II, full length
fold change of the co-immunoprecipitated fraction with noggin against without noggin: 1.64 fold
